Experimental data published in doi:10.1101/862326.
Where two headings read alike, the source gives them in different places.

Tests used:
Test in all cases: ITC
TRBP2-dsRBD1 [1] = molecular target: T1, TRBP2-dsRBD1 (UniProt Q15633 1-105)
T1 sequence: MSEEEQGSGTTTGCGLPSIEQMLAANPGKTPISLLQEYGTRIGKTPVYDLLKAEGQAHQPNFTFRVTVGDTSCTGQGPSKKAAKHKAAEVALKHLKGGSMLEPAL

dADAR-dsRBD1 [2] = molecular target: T2, dADAR-dsRBD1 (UniProt Q9NII1 48-140)
T2 sequence: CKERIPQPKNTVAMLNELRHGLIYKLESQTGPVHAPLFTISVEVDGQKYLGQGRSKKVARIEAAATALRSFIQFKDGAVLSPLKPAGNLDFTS

TRBP2-dsRBD1 [3] = molecular target: T1, TRBP2-dsRBD1; remark: listed apart in the source
dADAR-dsRBD1 [4] = molecular target: T2, dADAR-dsRBD1; remark: listed apart in the source
TRBP2-dsRBD1 [5] = molecular target: T1, TRBP2-dsRBD1; remark: listed apart in the source
dADAR-dsRBD1 [6] = molecular target: T2, dADAR-dsRBD1; remark: listed apart in the source
dADAR-dsRBD1 [7] = molecular target: T2, dADAR-dsRBD1; remark: listed apart in the source
TRBP2-dsRBD1 [8] = molecular target: T1, TRBP2-dsRBD1; remark: listed apart in the source
TRBP2-dsRBD1 [9] = molecular target: T1, TRBP2-dsRBD1; remark: listed apart in the source
dADAR-dsRBD1 [10] = molecular target: T2, dADAR-dsRBD1; remark: listed apart in the source

B1: miR-16-1-D (dsRNA)
RNA 1: UAGCAGCACGUAAAUAUUGGCG
RNA 2: CCAGUAUUUACGUGCUGCUGAA
- Kd (TRBP2-dsRBD1 [1]): 500 ± 40 nM
- Kd (dADAR-dsRBD1 [2]): 430 ± 100 nM

B2: miR-16-1 (dsRNA)
RNA 1: UAGCAGCACGUAAAUAUUGGCG
RNA 2: CCAGUAUUAACUGUGCUGCUGAA
- Kd (TRBP2-dsRBD1 [3]): 890 ± 210 nM
- Kd (dADAR-dsRBD1 [4]): 270 ± 50 nM

B3: miR-16-1-M (dsRNA)
RNA 1: UAGCAGCACGUAAAUAUUGGCG
RNA 2: CCAGUAUUAACGUGCUGCUGAA
- Kd (TRBP2-dsRBD1 [5]): 2120 ± 220 nM
- Kd (dADAR-dsRBD1 [6]): 780 ± 240 nM

B4: D10RNA (dsRNA)
RNA 1: UUAUAAAUGC
RNA 2: GCAUUUAUGA
- Kd (dADAR-dsRBD1 [7]): 210 ± 100 nM
- Kd (TRBP2-dsRBD1 [8]): 2210 ± 510 nM

B5: miR-16-1-B (dsRNA)
RNA 1: UAGCAGCACGUAAAUAUUGGCG
RNA 2: CCAGUAUUUACUGUGCUGCUGAA
- Kd (TRBP2-dsRBD1 [9]): 690 ± 130 nM
- Kd (dADAR-dsRBD1 [10]): 270 ± 70 nM
